The test addresses IL-7 receptor (IL-7R), mouse (mouse) (UniProt P16872). As to the kind of experiment: cell-based or functional assay.
Chain of UniProt P16872 (P16872 21-459, chain 1 of 2): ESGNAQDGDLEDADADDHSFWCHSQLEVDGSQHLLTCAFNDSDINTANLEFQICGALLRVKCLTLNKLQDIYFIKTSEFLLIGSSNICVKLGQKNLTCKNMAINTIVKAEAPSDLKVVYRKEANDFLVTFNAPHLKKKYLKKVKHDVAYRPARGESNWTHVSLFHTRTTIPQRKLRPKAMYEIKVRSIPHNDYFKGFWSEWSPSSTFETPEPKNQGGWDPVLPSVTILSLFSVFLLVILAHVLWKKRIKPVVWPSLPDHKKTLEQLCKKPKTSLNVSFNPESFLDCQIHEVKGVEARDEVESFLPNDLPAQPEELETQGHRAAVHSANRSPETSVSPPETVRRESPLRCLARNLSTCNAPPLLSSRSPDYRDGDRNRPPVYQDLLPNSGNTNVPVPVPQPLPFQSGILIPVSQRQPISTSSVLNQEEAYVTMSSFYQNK
Chain of UniProt P16872 (P34902 23-369, chain 2 of 2, further chain): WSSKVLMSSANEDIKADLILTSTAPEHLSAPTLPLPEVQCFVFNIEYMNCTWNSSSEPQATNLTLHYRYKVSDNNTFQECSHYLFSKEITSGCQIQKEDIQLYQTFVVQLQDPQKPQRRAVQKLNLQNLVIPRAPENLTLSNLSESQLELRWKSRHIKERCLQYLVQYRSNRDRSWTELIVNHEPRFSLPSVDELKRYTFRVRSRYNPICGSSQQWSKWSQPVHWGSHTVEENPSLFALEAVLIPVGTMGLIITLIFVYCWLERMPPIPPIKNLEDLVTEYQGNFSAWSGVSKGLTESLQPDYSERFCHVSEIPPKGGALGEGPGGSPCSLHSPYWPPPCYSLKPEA

For the substance “recombinant mouse IL-7 (from UniProt P10168 26-154) (ligand)”, the percentage of cells positive for pSTAT5 (flow cytometry / ImageStream), WT CD4+ T cells, 30 minutes of culture with IL-7 was over 71% and the percentage of cells positive for pSTAT5 (flow cytometry / ImageStream), mir-142-/- CD4+ T cells, 30 minutes of culture with IL-7 was determined as 8.7%.

For the origin of these results see patent US20140288149A1.
